Results reported in US11306156.
“And” between values parts separate entries of the source, which are not always exact repeats. Equal entries are not always repeated. Each block holds one substance with its values, some of them ahead of it.

What was measured:
[1] = target: D3H44 light chain V133G_S176D_T178D_T180E; assay: LCCA (co-expression, SPR tag read-out), L1:L2 DNA 1:3 normalised to 1:1; competing light chain m7
[2] = target: D3H44 light chain Q124E_V133G_S176D_T178D_T180E; assay: as above
[3] = target: D3H44 light chain V133G_S176D_T178D_T180E; assay: LCCA (co-expression, SPR tag read-out), L1:L2 DNA 1:3 normalised to 1:1; competing light chain m8
[4] = target: D3H44 light chain Q124E_V133G_S176D_T178D_T180E; assay: as above
[5] = target: tissue factor (TF) antigen (human (from the antibody's name 'anti-human tissue factor'; not stated for the antigen lot in the assay)) (UniProt P13726); assay: SPR (ProteOn XPR36), Fab captured on anti-penta His, TF analyte; against wild-type D3H44 Fab
[6] = target: tissue factor (TF) antigen (human (from the antibody's name 'anti-human tissue factor'; not stated for the antigen lot in the assay)) (UniProt P13726); assay: SPR (ProteOn XPR36): Fab captured via His tag on anti-penta His surface, TF injected, 1:1 fit
[7] = target: tissue factor (TF) antigen (UniProt P13726); assay: SPR (ProteOn XPR36), Fab captured on anti-penta-His surface, TF injected as analyte, 1:1 fit
[8] = target: tissue factor (TF) antigen (UniProt P13726); assay: SPR (ProteOn XPR36), Fab captured on anti-penta-His surface, TF injected as analyte, 1:1 fit; reference wild-type D3H44 Fab
[9] = target: D3H44 Fab heavy chain S186K, ABD2-His6 tagged; assay: LCCA, SPR of light chain tags; L1:L2 DNA 1:3 normalized to 1:1; competing light chain m19
[10] = target: D3H44 Fab heavy chain S186R, ABD2-His6 tagged; assay: as above
[11] = target: D3H44 Fab heavy chain L143E_K145T_Q179E, ABD2-His6 tagged; assay: as above
[12] = target: D3H44 Fab heavy chain L143E_K145T_Q179D, ABD2-His6 tagged; assay: as above
[13] = target: D3H44 Fab heavy chain L124W_L143F_K145T_Q179E, ABD2-His6 tagged; assay: LCCA, SPR of light chain tags; L1:L2 DNA 1:3 normalized to 1:1; competing light chain m14
[14] = target: D3H44 light chain Q124E_V133G_S176D_T178E_T180E; assay: LCCA (co-expression, SPR tag read-out), L1:L2 DNA 1:9 normalised to 1:1; competing light chain m8
[15] = target: D3H44 light chain V133G_Q160E_S176D_T180E; assay: as above
[16] = target: D3H44 light chain Q124E_V133G_S176D_T178E_T180E; assay: LCCA (co-expression, SPR tag read-out), L1:L2 DNA 1:3 normalised to 1:1; competing light chain m7
[17] = target: D3H44 light chain V133G_S176D_T178E_T180E; assay: as above
[18] = target: D3H44 light chain Q124E_V133G_S176D_T178E_T180E; assay: LCCA (co-expression, SPR tag read-out), L1:L2 DNA 1:3 normalised to 1:1; competing light chain m8
[19] = target: D3H44 light chain V133G_S176D_T178E_T180E; assay: as above
[20] = target: D3H44 light chain V133G_Q160E_S176D_T180E; assay: as above
[21] = target: tissue factor (TF) antigen (UniProt P13726); assay: SPR (ProteOn XPR36), Fab captured on anti-penta-His surface, TF injected as analyte, 1:1 fit; marked * (estimated from a Fab that differs only in the L chain tag)
[22] = target: tissue factor (TF) antigen (UniProt P13726); assay: SPR (ProteOn XPR36), Fab captured on anti-penta-His surface, TF injected as analyte, 1:1 fit; marked * (estimated from a Fab that differs only in the L chain tag); reference wild-type D3H44 Fab
[23] = target: D3H44 light chain Q38E_Q124E_Q160E_T180E; assay: LCCA, SPR tag readout, L1:L2 DNA 1:3 normalized to 1:1; competitor m26
[24] = target: D3H44 light chain Q38R_Q124R_Q160K_T178R; assay: LCCA, SPR tag readout, L1:L2 DNA 1:3 normalized to 1:1; competitor m19
[25] = target: D3H44 light chain Q38E_Q124E_Q160E_T180E; assay: LCCA, SPR tag readout, L1:L2 DNA 1:3 normalized to 1:1; competitor m20
[26] = target: D3H44 light chain Q124E_Q160E_T180E_C214S; assay: as above
[27] = target: D3H44 light chain P44F_S131K; assay: LCCA, SPR tag readout, L1:L2 DNA 1:3 normalized to 1:1; competitor m22
[28] = target: D3H44 light chain P44F_S131K; assay: LCCA, SPR tag readout, L1:L2 DNA 1:9 normalized to 1:1; competitor m22
[29] = target: D3H44 light chain P44F_S131K; assay: LCCA, SPR tag readout, L1:L2 DNA 1:3 normalized to 1:1; competitor m19
[30] = target: D3H44 light chain Q124E_Q160E_T180E_C214S; assay: LCCA, SPR tag readout, L1:L2 DNA 1:9 normalized to 1:1; competitor m20

Substance: D3H44 Fab heterodimer, H1 L124E_L143E_K145T / L1 Q124K_V133G_Q160K_S176R (H1L1 Fab of LCCA set 9277)
Change in median values of KD of h1l1 Fab heterodimer compared to wild type (-(log(KD design)-log(KD wt))) [5]: -0.12 | Kd [6]: 0.2 nM

Substance: D3H44 light chain Q124E_V133W_S176T_T178L_T180E, HA or FLAG tagged
H2L2:H2L1 normalized median ratio [13]: 31%

Substance: D3H44 Fab heavy chain L124E_K145T_Q179E
H1L1:H1L2 normalized median ratio [14]: 3 parts of 100 | H1L1:H1L2 normalized median ratio [15]: 5 parts of 100 | H1L1:H1L2 normalized median ratio [16]: 5 parts of 100 | H1L1:H1L2 normalized median ratio [1]: 5 parts of 100 | H1L1:H1L2 normalized median ratio [17]: 5 parts of 100 | H1L1:H1L2 normalized median ratio [2]: 4 parts of 100 | H1L1:H1L2 normalized median ratio [18]: 3 parts of 100 | H1L1:H1L2 normalized median ratio [3]: 4 parts of 100 | H1L1:H1L2 normalized median ratio [19]: 3 parts of 100 | H1L1:H1L2 normalized median ratio [20]: 4 parts of 100 | H1L1:H1L2 normalized median ratio [4]: 4 parts of 100

Substance: D3H44 H1L1 Fab heterodimer, H1 L124E_L143E_K145T, L1 Q124K_V133G_S176R_T178R
Kd [21]: 0.18 nM | Change in median KD of h1l1 Fab heterodimer compared to wild type (-(log(KD design)-log(KD wt))) (log(KD) difference) [22]: -0.07

Substance: D3H44 Fab heavy chain L124R_Q179K
H2L2:H2L1 normalized median ratio [14]: 91 parts of 100 | H2L2:H2L1 normalized median ratio [15]: 94 parts of 100 | H2L2:H2L1 normalized median ratio [16]: 93 parts of 100 | H2L2:H2L1 normalized median ratio [17]: 93 parts of 100 | H2L2:H2L1 normalized median ratio [18]: 92 parts of 100 | H2L2:H2L1 normalized median ratio [19]: 92 parts of 100 | H2L2:H2L1 normalized median ratio [20]: 91 parts of 100

Substance: D3H44 Fab heavy chain L45P_K145T_Q179E
H1L1:H1L2 normalized median ratio [25]: 6% | H2L2:H2L1 normalized median ratio [25]: 6% | H1L1:H1L2 normalized median ratio [26]: 4% | H2L2:H2L1 normalized median ratio [26]: 4% | H1L1:H1L2 normalized median ratio [27]: 96% | H1L1:H1L2 normalized median scalar value ln(r1/f1) [27]: 3.19 | H2L2:H2L1 normalized median ratio [27]: 96% | H1L1:H1L2 normalized median ratio [28]: 93% | H1L1:H1L2 normalized median scalar value ln(r1/f1) [28]: 2.54 | H2L2:H2L1 normalized median ratio [28]: 93% | H1L1:H1L2 normalized median ratio [29]: 94% | H1L1:H1L2 normalized median scalar value ln(r1/f1) [29]: 2.83 | H2L2:H2L1 normalized median ratio [29]: 94% | H1L1:H1L2 normalized median ratio [30]: 7% | H2L2:H2L1 normalized median ratio [30]: 7%

The next lines start with the values.

H2L2:H2L1 normalized median ratio [1]: 91 parts of 100 | H2L2:H2L1 normalized median ratio [2]: 92 parts of 100 | H2L2:H2L1 normalized median ratio [3]: 90 parts of 100 | H2L2:H2L1 normalized median ratio [4]: 91 parts of 100
Substance: D3H44 Fab heavy chain L124R_S186K

Kd [7]: 0.28 nM | Change in median KD of h1l1 Fab heterodimer compared to wild type (-(log(KD design)-log(KD wt))) (log(KD) difference) [8]: -0.26
Substance: D3H44 H1L1 Fab heterodimer, H1 L124E_L143E_K145M, L1 Q124K_V133G_Q160K_S176R

H2L2:H2L1 normalized median ratio [9]: 3% | H2L2:H2L1 normalized median ratio [10]: 3% | H1L1:H1L2 normalized median ratio [11]: 84% | H1L1:H1L2 normalized median scalar value ln(r1/f1) [11]: 1.69 | H1L1:H1L2 normalized median ratio [12]: 84% | H1L1:H1L2 normalized median scalar value ln(r1/f1) [12]: 1.63
Substance: D3H44 light chain Q124R_T178K, HA or FLAG tagged

Kd [7]: 0.2 nM | Change in median KD of h1l1 Fab heterodimer compared to wild type (-(log(KD design)-log(KD wt))) (log(KD) difference) [8]: -0.12
Substance: D3H44 H1L1 Fab heterodimer, H1 L124E_L143E_K145T, L1 Q124K_V133G_Q160K_S176R

Change in median values of KD of h1l1 Fab heterodimer compared to wild type (-(log(KD design)-log(KD wt))) [5]: -0.01 | Kd [6]: 0.16 nM
Substance: D3H44 Fab heterodimer, H1 A139C_L143E_K145T_Q179E / L1 F116C_Q124R_T178R (H1L1 Fab of LCCA set 9049)

H1L1:H1L2 normalized median ratio [23]: 3% | H1L1:H1L2 normalized median ratio [24]: 97% | H1L1:H1L2 normalized median scalar value ln(r1/f1) [24]: 3.58 and 1.58
Substance: D3H44 Fab heavy chain Q39E_L143E_K145T_Q179E
